B1: human glycogenin 1 (GN1), full length, wild type, glucosylated, P46976-2 1-333 (enzyme)
chain: MTDQAFVTLTTNDAYAKGALVLGSSLKQHRTTRRLVVLATPQVSDSMRKVLETVFDEVIMVDVLDSGDSAHLTLMKRPELGVTLTKLHCWSLTQYSKCVFMDADTLVLANIDDLFDREELSAAPDPGWPDCFNSGVFVYQPSVETYNQLLHLASEQGSFDGGDQGILNTFFSSWATTDIRKHLPFIYNLSSISIYSYLPAFKVFGASAKVVHFLGRVKPWNYTYDPKTKSVKSEAHDPNMTHPEFLILWWNIFTTNVLPLLQQFGLVKDTCSYVNVEDVSGAISHLSLGEIPAMAQPFVSSEERKERWEQGQADYMGADSFDNIKRKLDTYLQ
modifications: here or on the partner: auto-glucosylated at tyrosine 195 (heterogeneous glucose chains; smear on SDS-PAGE, PAS positive); auto-glucosylated at tyrosine 195 (heterogeneous glucose chains; smear on SDS-PAGE, PAS positive)
B2: human glycogen synthase 1 (GS1), full length, phosphorylated, co-expressed with GN1 from the pFL vector (enzyme, UniProt P13807 1-737, looked up)
chain: MPLNRTLSMSSLPGLEDWEDEFDLENAVLFEVAWEVANKVGGIYTVLQTKAKVTGDEWGDNYFLVGPYTEQGVRTQVELLEAPTPALKRTLDSMNSKGCKVYFGRWLIEGGPLVVLLDVGASAWALERWKGELWDTCNIGVPWYDREANDAVLFGFLTTWFLGEFLAQSEEKPHVVAHFHEWLAGVGLCLCRARRLPVATIFTTHATLLGRYLCAGAVDFYNNLENFNVDKEAGERQIYHRYCMERAAAHCAHVFTTVSQITAIEAQHLLKRKPDIVTPNGLNVKKFSAMHEFQNLHAQSKARIQEFVRGHFYGHLDFNLDKTLYFFIAGRYEFSNKGADVFLEALARLNYLLRVNGSEQTVVAFFIMPARTNNFNVETLKGQAVRKQLWDTANTVKEKFGRKLYESLLVGSLPDMNKMLDKEDFTMMKRAIFATQRQSFPPVCTHNMLDDSSDPILTTIRRIGLFNSSADRVKVIFHPEFLSSTSPLLPVDYEEFVRGCHLGVFPSYYEPWGYTPAECTVMGIPSISTNLSGFGCFMEEHIADPSAYGIYILDRRFRSLDDSCSQLTSFLYSFCQQSRRQRIIQRNRTERLSDLLDWKYLGRYYMSARHMALSKAFPEHFTYEPNEADAAQGYRYPRPASVPPSPSLSRHSSPHQSEDEEDPRNGPLEEDGERYDEDEEAAKDRRNIRAPEWPRRASCTSSTSGSKRNSVDTATSSSLSTPSEPLSPTSSLGEERN
modifications: phosphoserine mapped by MS/MS at S8, S412, S641, S645, S652, S653, S657, S727, S731; phospho-S641 modelled in the cryo-EM map
notes: glycogen synthase 1 (muscle), human, encoded by GYS1, cDNA NM 002103, full length; In the pFL construct only GN carries the His tag; also called HsGS; GS WT
B3: human glycogen synthase 1 (GS1) R603A (enzyme, UniProt P13807 1-737, looked up)
chain: MPLNRTLSMSSLPGLEDWEDEFDLENAVLFEVAWEVANKVGGIYTVLQTKAKVTGDEWGDNYFLVGPYTEQGVRTQVELLEAPTPALKRTLDSMNSKGCKVYFGRWLIEGGPLVVLLDVGASAWALERWKGELWDTCNIGVPWYDREANDAVLFGFLTTWFLGEFLAQSEEKPHVVAHFHEWLAGVGLCLCRARRLPVATIFTTHATLLGRYLCAGAVDFYNNLENFNVDKEAGERQIYHRYCMERAAAHCAHVFTTVSQITAIEAQHLLKRKPDIVTPNGLNVKKFSAMHEFQNLHAQSKARIQEFVRGHFYGHLDFNLDKTLYFFIAGRYEFSNKGADVFLEALARLNYLLRVNGSEQTVVAFFIMPARTNNFNVETLKGQAVRKQLWDTANTVKEKFGRKLYESLLVGSLPDMNKMLDKEDFTMMKRAIFATQRQSFPPVCTHNMLDDSSDPILTTIRRIGLFNSSADRVKVIFHPEFLSSTSPLLPVDYEEFVRGCHLGVFPSYYEPWGYTPAECTVMGIPSISTNLSGFGCFMEEHIADPSAYGIYILDRRFRSLDDSCSQLTSFLYSFCQQSRRQRIIQRNRTERLSDLLDWKYLGAYYMSARHMALSKAFPEHFTYEPNEADAAQGYRYPRPASVPPSPSLSRHSSPHQSEDEEDPRNGPLEEDGERYDEDEEAAKDRRNIRAPEWPRRASCTSSTSGSKRNSVDTATSSSLSTPSEPLSPTSSLGEERN
modifications: phosphorylation at S8, S641 and S641/S645 probed by immunoblot (Fig. 4b)
notes: glycogen synthase 1 (muscle), human, encoded by GYS1, cDNA NM 002103; also called GS R603A; not shown: His6, N-terminal, cleaved
B4: human glycogen synthase 1 (GS1) H610E (enzyme, UniProt P13807 1-737, looked up)
chain: MPLNRTLSMSSLPGLEDWEDEFDLENAVLFEVAWEVANKVGGIYTVLQTKAKVTGDEWGDNYFLVGPYTEQGVRTQVELLEAPTPALKRTLDSMNSKGCKVYFGRWLIEGGPLVVLLDVGASAWALERWKGELWDTCNIGVPWYDREANDAVLFGFLTTWFLGEFLAQSEEKPHVVAHFHEWLAGVGLCLCRARRLPVATIFTTHATLLGRYLCAGAVDFYNNLENFNVDKEAGERQIYHRYCMERAAAHCAHVFTTVSQITAIEAQHLLKRKPDIVTPNGLNVKKFSAMHEFQNLHAQSKARIQEFVRGHFYGHLDFNLDKTLYFFIAGRYEFSNKGADVFLEALARLNYLLRVNGSEQTVVAFFIMPARTNNFNVETLKGQAVRKQLWDTANTVKEKFGRKLYESLLVGSLPDMNKMLDKEDFTMMKRAIFATQRQSFPPVCTHNMLDDSSDPILTTIRRIGLFNSSADRVKVIFHPEFLSSTSPLLPVDYEEFVRGCHLGVFPSYYEPWGYTPAECTVMGIPSISTNLSGFGCFMEEHIADPSAYGIYILDRRFRSLDDSCSQLTSFLYSFCQQSRRQRIIQRNRTERLSDLLDWKYLGRYYMSAREMALSKAFPEHFTYEPNEADAAQGYRYPRPASVPPSPSLSRHSSPHQSEDEEDPRNGPLEEDGERYDEDEEAAKDRRNIRAPEWPRRASCTSSTSGSKRNSVDTATSSSLSTPSEPLSPTSSLGEERN
modifications: phosphorylation at S8, S641 and S641/S645 probed by immunoblot (Fig. 4b)
notes: glycogen synthase 1 (muscle), human, encoded by GYS1, cDNA NM 002103; also called GS H610E; not shown: His6, N-terminal, cleaved
B5: human glycogen synthase 1 (GS1) Y600A (enzyme, UniProt P13807 1-737, looked up)
chain: MPLNRTLSMSSLPGLEDWEDEFDLENAVLFEVAWEVANKVGGIYTVLQTKAKVTGDEWGDNYFLVGPYTEQGVRTQVELLEAPTPALKRTLDSMNSKGCKVYFGRWLIEGGPLVVLLDVGASAWALERWKGELWDTCNIGVPWYDREANDAVLFGFLTTWFLGEFLAQSEEKPHVVAHFHEWLAGVGLCLCRARRLPVATIFTTHATLLGRYLCAGAVDFYNNLENFNVDKEAGERQIYHRYCMERAAAHCAHVFTTVSQITAIEAQHLLKRKPDIVTPNGLNVKKFSAMHEFQNLHAQSKARIQEFVRGHFYGHLDFNLDKTLYFFIAGRYEFSNKGADVFLEALARLNYLLRVNGSEQTVVAFFIMPARTNNFNVETLKGQAVRKQLWDTANTVKEKFGRKLYESLLVGSLPDMNKMLDKEDFTMMKRAIFATQRQSFPPVCTHNMLDDSSDPILTTIRRIGLFNSSADRVKVIFHPEFLSSTSPLLPVDYEEFVRGCHLGVFPSYYEPWGYTPAECTVMGIPSISTNLSGFGCFMEEHIADPSAYGIYILDRRFRSLDDSCSQLTSFLYSFCQQSRRQRIIQRNRTERLSDLLDWKALGRYYMSARHMALSKAFPEHFTYEPNEADAAQGYRYPRPASVPPSPSLSRHSSPHQSEDEEDPRNGPLEEDGERYDEDEEAAKDRRNIRAPEWPRRASCTSSTSGSKRNSVDTATSSSLSTPSEPLSPTSSLGEERN
modifications: phosphorylation at S8, S641 and S641/S645 probed by immunoblot (Fig. 4b)
notes: glycogen synthase 1 (muscle), human, encoded by GYS1, cDNA NM 002103; also called GS Y600A; not shown: His6, N-terminal, cleaved
B6: human glycogen synthase 1 (GS1) W18A (enzyme, UniProt P13807 1-737, looked up)
chain: MPLNRTLSMSSLPGLEDAEDEFDLENAVLFEVAWEVANKVGGIYTVLQTKAKVTGDEWGDNYFLVGPYTEQGVRTQVELLEAPTPALKRTLDSMNSKGCKVYFGRWLIEGGPLVVLLDVGASAWALERWKGELWDTCNIGVPWYDREANDAVLFGFLTTWFLGEFLAQSEEKPHVVAHFHEWLAGVGLCLCRARRLPVATIFTTHATLLGRYLCAGAVDFYNNLENFNVDKEAGERQIYHRYCMERAAAHCAHVFTTVSQITAIEAQHLLKRKPDIVTPNGLNVKKFSAMHEFQNLHAQSKARIQEFVRGHFYGHLDFNLDKTLYFFIAGRYEFSNKGADVFLEALARLNYLLRVNGSEQTVVAFFIMPARTNNFNVETLKGQAVRKQLWDTANTVKEKFGRKLYESLLVGSLPDMNKMLDKEDFTMMKRAIFATQRQSFPPVCTHNMLDDSSDPILTTIRRIGLFNSSADRVKVIFHPEFLSSTSPLLPVDYEEFVRGCHLGVFPSYYEPWGYTPAECTVMGIPSISTNLSGFGCFMEEHIADPSAYGIYILDRRFRSLDDSCSQLTSFLYSFCQQSRRQRIIQRNRTERLSDLLDWKYLGRYYMSARHMALSKAFPEHFTYEPNEADAAQGYRYPRPASVPPSPSLSRHSSPHQSEDEEDPRNGPLEEDGERYDEDEEAAKDRRNIRAPEWPRRASCTSSTSGSKRNSVDTATSSSLSTPSEPLSPTSSLGEERN
modifications: phosphorylation at S8, S641 and S641/S645 probed by immunoblot (Fig. 4b)
notes: glycogen synthase 1 (muscle), human, encoded by GYS1, cDNA NM 002103; also called GS W18A; not shown: His6, N-terminal, cleaved

Columns and labels:
[1] = biological target: T1, human glycogenin 1 (GN1), full length, wild type, glucosylated (human), P46976; test: negative-stain electron microscopy; purified co-expressed complex at 0.01-0.02 mg/mL in 25 mM HEPES pH 7.5, 150 mM NaCl, 1 mM TCEP, 10% glycerol; uranyl acetate stain; 2D classes and 3D map (C1, ~22 Å); conditions: remark: other sources report otherwise
T1 chain: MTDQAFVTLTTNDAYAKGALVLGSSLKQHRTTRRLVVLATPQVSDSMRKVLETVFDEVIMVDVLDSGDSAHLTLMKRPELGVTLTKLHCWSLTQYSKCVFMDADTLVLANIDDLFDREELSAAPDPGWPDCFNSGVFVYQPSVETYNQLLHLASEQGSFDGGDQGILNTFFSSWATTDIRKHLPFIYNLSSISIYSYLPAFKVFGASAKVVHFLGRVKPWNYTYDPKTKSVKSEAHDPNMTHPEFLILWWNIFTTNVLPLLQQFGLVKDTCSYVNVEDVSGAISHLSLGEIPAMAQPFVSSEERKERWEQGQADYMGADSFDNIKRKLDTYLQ

[2] = biological target: T2, human glycogenin 1 (GN1), full length, wild type, glucosylated (human, UniProt P46976-2 1-333, auto-glucosylated at tyrosine 195 (heterogeneous glucose chains; smear on SDS-PAGE, PAS positive)); test: as above; conditions: both partners purified
T2 construct: glycogenin 1, human, encoded by GYG1, cDNA NM 001184720, full length; expected ~37.5 kDa; the C-terminal GN34 region is modelled as residues 300-332, which fits the 333-residue isoform; The isoform is inferred from the printed transcript id, the ~37.5 kDa size and the GN34 numbering; also called GN WT; HsGN; not shown: His6, N-terminal, cleaved
T2 sequence (looked up): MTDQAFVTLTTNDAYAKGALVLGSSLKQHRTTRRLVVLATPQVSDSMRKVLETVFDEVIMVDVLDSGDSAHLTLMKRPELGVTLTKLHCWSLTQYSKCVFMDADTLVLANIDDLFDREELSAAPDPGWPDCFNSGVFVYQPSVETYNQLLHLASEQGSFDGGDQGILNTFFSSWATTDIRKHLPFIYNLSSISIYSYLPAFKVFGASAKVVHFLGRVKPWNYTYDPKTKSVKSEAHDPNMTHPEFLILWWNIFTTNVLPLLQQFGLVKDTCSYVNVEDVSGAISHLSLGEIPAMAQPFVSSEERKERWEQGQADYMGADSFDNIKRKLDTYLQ

[3] = biological target: T3, human glycogenin 1 (GN1) Y195F, full length, non-glucosylated (human, UniProt P46976-2 1-333, Y195F); test: mass photometry; purified co-expressed complex diluted to 50 nM in 25 mM HEPES pH 7.5, 150 mM NaCl, 1 mM TCEP; Refyn OneMP, 60 s movies; conditions: both partners purified
T3 construct: glycogenin 1, human, encoded by GYG1, cDNA NM 001184720, full length; expected ~37.5 kDa; the C-terminal GN34 region is modelled as residues 300-332, which fits the 333-residue isoform; Cloned in pFL (with untagged GS) and in pFastBac (co-infected with His6-TEV-GS WT or mutants); Both carry an N-terminal His6 tag and a cleavable site, so they are treated as one molecule; also called GN(Y195F); GN …
T3 sequence (looked up): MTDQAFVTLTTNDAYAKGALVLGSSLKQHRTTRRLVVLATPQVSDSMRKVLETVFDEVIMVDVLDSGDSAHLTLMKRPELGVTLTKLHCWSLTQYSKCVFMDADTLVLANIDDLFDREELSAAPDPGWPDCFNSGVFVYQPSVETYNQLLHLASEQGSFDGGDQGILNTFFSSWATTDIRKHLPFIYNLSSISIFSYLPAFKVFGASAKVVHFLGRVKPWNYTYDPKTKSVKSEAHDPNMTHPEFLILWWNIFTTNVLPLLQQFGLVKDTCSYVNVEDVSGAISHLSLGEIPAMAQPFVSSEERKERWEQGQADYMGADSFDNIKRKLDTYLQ

[4] = biological target: the molecule itself; test: cryo-EM structure; purified GS-GN (WT) complex at 0.36 mg/mL (2.97 μM), 8% glycerol; map at 6.0 Å
[5] = biological target: the molecule itself; test: mass photometry; purified co-expressed complex diluted to 50 nM in 25 mM HEPES pH 7.5, 150 mM NaCl, 1 mM TCEP; Refyn OneMP, 60 s movies

Binder	binding result [5]	also measured
B1		stoichiometry N [1]: 2
B2		stoichiometry N [2]: 1 GS per GN (4:4); stoichiometry N [3]: 1 GS per GN (4:4); stoichiometry N [4]: 4
B3	binds	
B4	binds	
B5	binds	
B6	binds	
